In publication PMC7192624, “A Snu114–GTP–Prp8 module forms a relay station for efficient splicing in yeast” (Nucleic Acids Research, 2020):
Where a chain is given by its changes, count along the chain named.

What was measured:
Assay in all cases: SEC; two proteins co-produced in insect cells, both Strep-tagged; StrepTactin capture, then SEC on Superdex S200 in 10 mM TRIS-HCl pH 8.0, 300 mM NaCl, 2 mM DTT; co-purification of wt and variant complexes
Conditions in all cases: both partners purified
Snu114^72-1008 S190A = molecular target: T1, Snu114^72-1008 S190A (yeast, UniProt P36048 72-1008, S190A)
T1 construct: Insoluble when produced alone; also called Snu114^S190A; source: insect cells, co-produced with Prp8^SBR; complex purified; not shown: Strep tag (from the vector pIDS-C-Strep), C-terminal, kept
T1 sequence (looked up): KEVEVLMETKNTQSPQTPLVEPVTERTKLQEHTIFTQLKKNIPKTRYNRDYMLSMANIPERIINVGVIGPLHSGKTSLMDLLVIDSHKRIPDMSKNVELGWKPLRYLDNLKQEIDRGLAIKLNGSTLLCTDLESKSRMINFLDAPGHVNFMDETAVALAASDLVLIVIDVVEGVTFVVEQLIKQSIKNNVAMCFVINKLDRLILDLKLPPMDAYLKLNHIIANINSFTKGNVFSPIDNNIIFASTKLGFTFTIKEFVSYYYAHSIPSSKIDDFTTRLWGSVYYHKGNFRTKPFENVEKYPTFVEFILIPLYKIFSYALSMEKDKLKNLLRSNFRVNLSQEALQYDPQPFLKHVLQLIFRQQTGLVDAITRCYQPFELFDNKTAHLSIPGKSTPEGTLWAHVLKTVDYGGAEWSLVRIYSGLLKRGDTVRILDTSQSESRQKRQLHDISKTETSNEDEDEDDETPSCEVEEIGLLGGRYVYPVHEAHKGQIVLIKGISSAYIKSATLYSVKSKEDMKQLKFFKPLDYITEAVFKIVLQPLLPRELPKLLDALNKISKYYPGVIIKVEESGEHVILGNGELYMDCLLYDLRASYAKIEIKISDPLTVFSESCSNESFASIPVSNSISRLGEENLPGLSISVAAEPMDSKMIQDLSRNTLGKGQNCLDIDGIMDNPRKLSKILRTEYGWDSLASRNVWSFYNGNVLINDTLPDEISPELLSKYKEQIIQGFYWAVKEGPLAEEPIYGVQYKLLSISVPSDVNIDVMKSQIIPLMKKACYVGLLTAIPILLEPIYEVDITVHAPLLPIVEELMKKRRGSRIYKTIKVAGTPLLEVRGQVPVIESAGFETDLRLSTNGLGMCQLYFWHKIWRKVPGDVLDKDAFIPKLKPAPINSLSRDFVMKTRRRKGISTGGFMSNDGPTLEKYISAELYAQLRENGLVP

Snu114^72-1008 K146A = molecular target: T2, Snu114^72-1008 K146A (yeast, UniProt P36048 72-1008, K146A)
T2 construct: Insoluble when produced alone; also called Snu114^K146A; source: insect cells, co-produced with Prp8^SBR; complex purified; not shown: Strep tag (from the vector pIDS-C-Strep), C-terminal, kept
T2 sequence (looked up): T1 sequence (looked up) with K75A, A119S

[1] = molecular target: T3, Snu114^72-1008 (yeast Snu114 lacking the acidic N-terminal region) (yeast, UniProt P36048 72-1008)
T3 construct: synthetic gene; Co-purifies with endogenous GTP; source: insect cells (MultiBac baculovirus); co-produced with Prp8 constructs or alone; purified (StrepTactin, SEC); not shown: Strep tag (from the vector pIDS-C-Strep), C-terminal, kept
T3 sequence (looked up): T1 sequence (looked up) with A119S

Measured: binding result

B1: Prp8^SBR (Prp8 Snu114-binding region, Prp8 residues 315-555), recombinant (domain or fragment, yeast, UniProt P33334 315-555, looked up)
chain: STPLRDEVTDKNYYYLFDKKSFFNGKALNNAIPGGPKFEPLYPREEEEDYNEFNSIDRVIFRVPIRSEYKVAFPHLYNSRPRSVRIPWYNNPVSCIIQNDEEYDTPALFFDPSLNPIPHFIDNNSSLNVSNTKENGDFTLPEDFAPLLAEEEELILPNTKDAMSLYHSPFPFNRTKGKMVRAQDVALAKKWFLQHPDEEYPVKVKVSYQKLLKNYVLNELHPTLPTNHNKTKLLKSLKNTK
notes: Could not be produced alone; In the crystal residues 367-533 were modelled (416-419 and 435-449 without density); also called wt Prp8^SBR; Prp8^SBP; source: complex purified (StrepTactin, SEC); not shown: Strep tag (from the vector pFL-N-Strep), N-terminal, kept
binds: Snu114^72-1008 S190A | Snu114^72-1008 K146A | [1]
